Data from article PMC4466390, “Canonical and Noncanonical Sites Determine NPT2A Binding Selectivity to NHERF1 PDZ1” (PLoS ONE, 2015).
Where no end group is shown, it is not given here.

B1: rhodamine-labeled 22-residue carboxy-terminal NPT2A peptide (peptide)
peptide: {5(6)‑carboxytetramethylrhodamine}-ELPPATPSPRLALPAHHNATRL
notes: type II sodium-dependent phosphate co-transporter (NPT2A, SLC34A1), 22-residue carboxy-terminal fragment; also called labeled NPT2A peptide; source: synthetic peptide (solid phase, Fmoc; HPLC purified)

What was measured:
Settings in all cases: both partners purified
NHERF1 PDZ1 (1–140) [1] = molecular target: T1, NHERF1 PDZ1 (1–140) (human, UniProt O14745 1-140); test: fluorescence polarisation; as a1 but at pH 5.5; 0.5 uM labeled NPT2A peptide, WT PDZ1 (1–140)
T1 construct: Na+/H+ Exchanger Regulatory Factor-1 (NHERF1, EBP50), human, PDZ1 construct, residues 1-140; Plasmid pET16-N1P1 provided by D. F. Mierke; also called WT PDZ1 (1–140); pET16-N1P1; source: E. coli BL21 (DE3), purified (Ni-NTA-agarose)
T1 sequence (looked up): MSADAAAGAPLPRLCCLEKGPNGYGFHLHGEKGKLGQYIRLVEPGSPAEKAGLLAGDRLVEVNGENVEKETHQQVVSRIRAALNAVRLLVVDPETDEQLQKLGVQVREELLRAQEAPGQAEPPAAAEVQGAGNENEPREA

NHERF1 PDZ1 (1–140) [2] = molecular target: T1, NHERF1 PDZ1 (1–140); test: fluorescence polarisation; as a1 but at pH 6.0; 0.5 uM labeled NPT2A peptide, WT PDZ1 (1–140)
NHERF1 PDZ1 (1–140) [3] = molecular target: T1, NHERF1 PDZ1 (1–140); test: fluorescence polarisation; solution phase direct binding, PDZ construct varied against 0.5 uM or 1 uM rhodamine-labeled NPT2A peptide; FP buffer (25 mM NaH2PO4, 10 mM NaCl, pH 7.4, 1 mM DTT, 0.1 mg/ml bovine IgG, 0.5 mM Thesit); 25°C; anisotropy fitted to a 1:1 complex
NHERF1 PDZ1 (11–120) = molecular target: T2, NHERF1 PDZ1 (11–120) (human, UniProt O14745 11-120); test: as above
T2 construct: Na+/H+ Exchanger Regulatory Factor-1 (NHERF1, EBP50), human, PDZ1 construct, residues 11-120; also called WT PDZ1 (11–120); source: E. coli BL21 (DE3), purified (Ni-NTA-agarose)
T2 sequence (looked up): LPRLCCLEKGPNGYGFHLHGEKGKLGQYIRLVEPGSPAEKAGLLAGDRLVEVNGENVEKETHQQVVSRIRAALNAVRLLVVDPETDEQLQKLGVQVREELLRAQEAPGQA

[4] = molecular target: T3, NHERF1 PDZ1 H27N/E43D (1–120) (human, UniProt O14745 1-120, H27N | E43D); test: ITC; 25°C; 10 mM Hepes (pH 7.5), 10 mM NaCl, 0.5 mM EDTA, 0.5 mM beta-mercaptoethanol; 25 uM PDZ protein in the cell, NPT2A (200–250 uM) titrated in 19 injections of 2 ul
T3 construct: The double mutant's plasmid is not described in the methods; also called His27Asn/Glu43Asp PDZ1; source: E. coli BL21 (DE3), purified (Ni-NTA-agarose)
T3 sequence (looked up): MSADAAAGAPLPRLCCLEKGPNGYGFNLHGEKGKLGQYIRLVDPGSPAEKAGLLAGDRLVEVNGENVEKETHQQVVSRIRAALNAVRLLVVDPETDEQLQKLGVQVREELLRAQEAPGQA

NHERF1 PDZ1 (1–120) = molecular target: T4, NHERF1 PDZ1 (1–120) (human, UniProt O14745 1-120); test: as above
T4 construct: the methods describe PDZ1 (11-120) and PDZ1 (1-140) but no 1-120 construct, so 1-120 may be a misprint of 11-120; Host and purification are the general statement of the methods; also called WT PDZ1; source: E. coli BL21 (DE3), purified (Ni-NTA-agarose)
T4 sequence (looked up): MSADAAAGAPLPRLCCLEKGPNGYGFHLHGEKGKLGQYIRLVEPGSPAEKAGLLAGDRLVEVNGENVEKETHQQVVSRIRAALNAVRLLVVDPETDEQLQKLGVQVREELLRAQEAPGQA

NHERF1 PDZ1 H27N (1–120) = molecular target: T5, NHERF1 PDZ1 H27N (1–120) (human, UniProt O14745 1-120, H27N); test: as above
T5 construct: the methods describe the mutants in PDZ1 (11-120), so 1-120 may be a misprint of 11-120; also called His27Asn; source: E. coli BL21 (DE3), purified (Ni-NTA-agarose)
T5 sequence (looked up): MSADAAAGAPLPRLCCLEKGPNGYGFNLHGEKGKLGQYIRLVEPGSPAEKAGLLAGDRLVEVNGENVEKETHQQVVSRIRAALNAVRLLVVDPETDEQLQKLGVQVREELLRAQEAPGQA

NHERF1 PDZ1 E43D (1–120) = molecular target: T6, NHERF1 PDZ1 E43D (1–120) (human, UniProt O14745 1-120, E43D); test: as above
T6 construct: the methods describe the mutants in PDZ1 (11-120), so 1-120 may be a misprint of 11-120; also called Glu43Asp; source: E. coli BL21 (DE3), purified (Ni-NTA-agarose)
T6 sequence (looked up): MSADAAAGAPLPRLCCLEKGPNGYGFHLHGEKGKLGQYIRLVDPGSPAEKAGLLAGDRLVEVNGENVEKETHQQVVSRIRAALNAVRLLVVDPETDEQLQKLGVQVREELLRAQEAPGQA

[5] = molecular target: B1; test: fluorescence polarisation; solution phase direct binding, PDZ construct varied against 0.5 uM or 1 uM rhodamine-labeled NPT2A peptide; FP buffer (25 mM NaH2PO4, 10 mM NaCl, pH 7.4, 1 mM DTT, 0.1 mg/ml bovine IgG, 0.5 mM Thesit); 25°C; anisotropy fitted to a 1:1 complex

## B1
NHERF1 PDZ1 (1–140) [1]
  Kd: 16.1 ± 3.3 µM
NHERF1 PDZ1 (1–140) [2]
  Kd: 8 ± 1.8 µM
NHERF1 PDZ1 (1–140) [3]
  Kd: 1.7 ± 0.2 µM
NHERF1 PDZ1 (11–120)
  Kd: 5.5 ± 0.6 µM

B2: NPT2A peptide (ligand titrated in ITC) (peptide)
peptide: ELPPATPSPRLALPAHHNATRL
notes: type II sodium-dependent phosphate co-transporter (NPT2A, SLC34A1), 22-residue carboxy-terminal fragment; Kept apart from m1 for that reason; also called ligand NPT2A; source: synthetic peptide
[4]
  Kd: 17.9 ± 0.9 µM
  dH: -5.8 ± 0.6 kcal/mol
  stoichiometry N: 0.6
NHERF1 PDZ1 (1–120)
  Kd: 3.1 ± 0.3 µM
  dH: -8.2 ± 0.8 kcal/mol
  stoichiometry N: 0.92
NHERF1 PDZ1 H27N (1–120)
  Kd: 5.3 ± 0.5 µM
  dH: -7.5 ± 0.7 kcal/mol
  stoichiometry N: 0.61
NHERF1 PDZ1 E43D (1–120)
  Kd: 10.4 ± 0.8 µM
  dH: -3 ± 0.3 kcal/mol
  stoichiometry N: 0.6

B3: NHERF1 PDZ2 D183E (domain or fragment, human, UniProt O14745 133-300, looked up)
chain: NENEPREADKSHPEQRELRPRLCTMKKGPSGYGFNLHSDKSKPGQFIRSVEPDSPAEASGLRAQDRIVEVNGVCMEGKQHGDVVSAIRAGGDETKLLVVDRETDEFFKKCRVIPSQEHLNGPLPVPFTNGEIQKENSREALAEAALESPRPALVRSASSDTSEELNSQ
notes: Na+/H+ Exchanger Regulatory Factor-1 (NHERF1, EBP50), human, PDZ2 construct, residues 133-300 (mutation introduced into pET16-N1P2), Asp183Glu; also called Asp183Glu PDZ2; single PDZ2 mutant; source: E. coli BL21 (DE3), purified (Ni-NTA-agarose)
[5]
  EC50: 20 ± 10 µM

B4: NHERF1 PDZ2 N167H/D183E (domain or fragment, human, UniProt O14745 133-300, looked up)
chain: NENEPREADKSHPEQRELRPRLCTMKKGPSGYGFHLHSDKSKPGQFIRSVEPDSPAEASGLRAQDRIVEVNGVCMEGKQHGDVVSAIRAGGDETKLLVVDRETDEFFKKCRVIPSQEHLNGPLPVPFTNGEIQKENSREALAEAALESPRPALVRSASSDTSEELNSQ
notes: Na+/H+ Exchanger Regulatory Factor-1 (NHERF1, EBP50), human, PDZ2 construct, residues 133-300 (mutations introduced into pET16-N1P2), Asn167His and Asp183Glu; also called Asn167His/Asp183Glu PDZ2; double PDZ2 mutant; source: E. coli BL21 (DE3), purified (Ni-NTA-agarose)
[5]
  EC50: 11.7 ± 2 µM
